Laboratory results from paper PMC3285539 (Nature, 2012).

B1: 20S core subunit α3 (natural protein)
chain: MGSRRYDSRTTIFSPEGRLYQVEYALESISHAGTAIGIMASDGIVLAAERKVTSTLLEQDTSTEKLYKLNDKIAVAVAGLTADAEILINTARIHAQNYLKTYNEDIPVEILVRRLSDIKQGYTQHGGLRPFGVSFIYAGYDDRYGYQLYTSNPSGNYTGWKAISVGANTSAAQTLLQMDYKDDMKVDDAIELALKTLSKTTDSSALTYDRLEFATIRKGANDGEVYQKIFKPQEIKDILVKTGITKKDEDEEADEDMK
B2: 20S core subunit α2 (natural protein)
chain: MTDRYSFSLTTFSPSGKLGQIDYALTAVKQGVTSLGIKATNGVVIATEKKSSSPLAMSETLSKVSLLTPDIGAVYSGMGPDYRVLVDKSRKVAHTSYKRIYGEYPPTKLLVSEVAKIMQEATQSGGVRPFGVSLLIAGHDEFNGFSLYQVDPSGSYFPWKATAIGKGSVAAKTFLEKRWNDELELEDAIHIALLTLKESVEGEFNGDTIELAIIGDENPDLLGYTGIPTDKGPRFRKLTSQEINDRLEAL
B3: Rpn12 (natural protein)
chain: MPSLAELTKSLSIAFENGDYAACEKLLPPIKIELIKNNLLIPDLSIQNDIYLNDLMITKRILEVGALASIQTFNFDSFENYFNQLKPYYFSNNHKLSESDKKSKLISLYLLNLLSQNNTTKFHSELQYLDKHIKNLEDDSLLSYPIKLDRWLMEGSYQKAWDLLQSGSQNISEFDSFTDILKSAIRDEIAKNTELSYDFLPLSNIKALLFFNNEKETEKFALERNWPIVNSKVYFNNQSKEKADYEDEMMHEEDQKTNIIEKAMDYAISIENIV
B4: Rpt3 (natural protein)
chain: MEELGIVTPVEKAVEEKPAVKSYASLLAQLNGTVNNNSALSNVNSDIYFKLKKLEKEYELLTLQEDYIKDEQRHLKRELKRAQEEVKRIQSVPLVIGQFLEPIDQNTGIVSSTTGMSYVVRILSTLDRELLKPSMSVALHRHSNALVDILPPDSDSSISVMGENEKPDVTYADVGGLDMQKQEIREAVELPLVQADLYEQIGIDPPRGVLLYGPPGTGKTMLVKAVANSTKAAFIRVNGSEFVHKYLGEGPRMVRDVFRLARENAPSIIFIDEVDSIATKRFDAQTGSDREVQRILIELLTQMDGFDQSTNVKVIMATNRADTLDPALLRPGRLDRKIEFPSLRDRRERRLIFGTIASKMSLAPEADLDSLIIRNDSLSGAVIAAIMQEAGLRAVRKNRYVILQSDLEEAYATQVKTDNTVDKFDFYK
B5: 20S core subunit α1 (natural protein)
chain: MSGAAAASAAGYDRHITIFSPEGRLYQVEYAFKATNQTNINSLAVRGKDCTVVISQKKVPDKLLDPTTVSYIFCISRTIGMVVNGPIPDARNAALRAKAEAAEFRYKYGYDMPCDVLAKRMANLSQIYTQRAYMRPLGVILTFVSVDEELGPSIYKTDPAGYYVGYKATATGPKQQEITTNLENHFKKSKIDHINEESWEKVVEFAITHMIDALGTEFSKNDLEVGVATKDKFFTLSAENIEERLVAIAEQD
B6: Ubp6 (enzyme)
chain: MSGETFEFNIRHSGKVYPITLSTDATSADLKSKAEELTQVPSARQKYMVKGGLSGEESIKIYPLIKPGSTVMLLGTPDANLISKPAKKNNFIEDLAPEQQVQQFAQLPVGFKNMGNTCYLNATLQALYRVNDLRDMILNYNPSQGVSNSGAQDEEIHKQIVIEMKRCFENLQNKSFKSVLPIVLLNTLRKCYPQFAERDSQGGFYKQQDAEELFTQLFHSMSIVFGDKFSEDFRIQFKTTIKDTANDNDITVKENESDSKLQCHISGTTNFMRNGLLEGLNEKIEKRSDLTGANSIYSVEKKISRLPKFLTVQYVRFFWKRSTNKKSKILRKVVFPFQLDVADMLTPEYAAEKVKVRDELRKVEKEKNEKEREIKRRKFDPSSSENVMTPREQYETQVALNESEKDQWLEEYKKHFPPNLEKGENPSCVYNLIGVITHQGANSESGHYQAFIRDELDENKWYKFNDDKVSVVEKEKIESLAGGGESDSALILMYKGFGL
B7: Rpn13 (natural protein)
chain: MSMSSTVIKFRAGVCEYNEDSRLCTPIPVQGEIEIKPNEEEELGFWDFEWRPTEKPVGRELDPISLILIPGETMWVPIKSSKSGRIFALVFSSNERYFFWLQEKNSGNLPLNELSAKDKEIYNKMIGVLNNSSESDEEESNDEKQKAQDVDVSMQD
B8: Rpn7 (natural protein)
chain: MVDVEEKSQEVEYVDPTVNRVPNYEVSEKAFLLTQSKVSIEQRKEAAEFVLAKIKEEEMAPYYKYLCEEYLVNNGQSDLEHDEKSDSLNEWIKFDQELYNELCKKNESKIKELNEKIQKLEEDDEGELEQAQAWINLGEYYAQIGDKDNAEKTLGKSLSKAISTGAKIDVMLTIARLGFFYNDQLYVKEKLEAVNSMIEKGGDWERRNRYKTYYGIHCLAVRNFKEAAKLLVDSLATFTSIELTSYESIATYASVTGLFTLERTDLKSKVIDSPELLSLISTTAALQSISSLTISLYASDYASYFPYLLETYANVLIPCKYLNRHADFFVREMRRKVYAQLLESYKTLSLKSMASAFGVSVAFLDNDLGKFIPNKQLNCVIDRVNGIVETNRPDNKNAQYHLLVKQGDGLLTKLQKYGAAVRLTGSDRV

Tests used:
[1] = target: Rpt2 (S. cerevisiae, UniProt P40327 1-437); assay: cryo-EM structure
[2] = target: B4; assay: cryo-EM structure
[3] = target: T1, Rpn6 (S. cerevisiae, UniProt Q12377 1-434); assay: cryo-EM structure
T1 sequence: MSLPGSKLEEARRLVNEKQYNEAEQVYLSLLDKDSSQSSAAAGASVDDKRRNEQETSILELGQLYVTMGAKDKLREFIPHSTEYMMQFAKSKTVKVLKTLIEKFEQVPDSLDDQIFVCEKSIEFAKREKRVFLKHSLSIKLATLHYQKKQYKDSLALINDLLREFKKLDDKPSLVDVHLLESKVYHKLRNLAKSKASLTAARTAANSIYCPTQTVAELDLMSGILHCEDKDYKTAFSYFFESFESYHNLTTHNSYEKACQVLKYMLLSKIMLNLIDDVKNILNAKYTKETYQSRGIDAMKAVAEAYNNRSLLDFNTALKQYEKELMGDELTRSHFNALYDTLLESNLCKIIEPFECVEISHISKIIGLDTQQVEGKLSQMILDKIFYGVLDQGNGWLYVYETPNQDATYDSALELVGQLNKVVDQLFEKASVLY

[4] = target: T2, Rpn2 (S. cerevisiae, UniProt P32565 1-945); assay: cryo-EM structure
T2 sequence: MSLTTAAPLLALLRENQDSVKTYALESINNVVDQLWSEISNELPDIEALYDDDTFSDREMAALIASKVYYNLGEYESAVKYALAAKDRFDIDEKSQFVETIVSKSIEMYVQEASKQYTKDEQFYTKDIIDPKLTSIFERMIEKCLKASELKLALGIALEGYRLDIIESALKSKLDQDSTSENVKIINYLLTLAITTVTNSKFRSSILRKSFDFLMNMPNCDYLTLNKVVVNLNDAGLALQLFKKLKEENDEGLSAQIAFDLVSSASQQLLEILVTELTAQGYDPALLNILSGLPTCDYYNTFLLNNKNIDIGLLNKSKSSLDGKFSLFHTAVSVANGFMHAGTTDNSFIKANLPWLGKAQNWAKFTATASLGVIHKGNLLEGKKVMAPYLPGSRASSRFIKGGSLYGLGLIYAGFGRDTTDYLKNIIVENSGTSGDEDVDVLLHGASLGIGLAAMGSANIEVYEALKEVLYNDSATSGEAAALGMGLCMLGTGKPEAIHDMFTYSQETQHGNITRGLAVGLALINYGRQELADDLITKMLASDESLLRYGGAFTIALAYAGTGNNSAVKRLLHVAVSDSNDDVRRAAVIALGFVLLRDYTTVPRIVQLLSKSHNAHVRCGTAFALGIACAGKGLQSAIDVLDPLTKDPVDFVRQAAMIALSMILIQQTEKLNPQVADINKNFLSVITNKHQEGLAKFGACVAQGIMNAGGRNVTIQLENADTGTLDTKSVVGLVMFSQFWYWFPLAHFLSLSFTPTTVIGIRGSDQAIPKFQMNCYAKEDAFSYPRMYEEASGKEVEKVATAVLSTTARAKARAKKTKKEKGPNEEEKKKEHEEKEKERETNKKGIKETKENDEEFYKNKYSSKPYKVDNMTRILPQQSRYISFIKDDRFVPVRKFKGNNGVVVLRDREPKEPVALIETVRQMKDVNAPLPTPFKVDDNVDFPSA

[5] = target: T3, Rpn5 (S. cerevisiae, UniProt Q12250 1-445); assay: cryo-EM structure
T3 sequence: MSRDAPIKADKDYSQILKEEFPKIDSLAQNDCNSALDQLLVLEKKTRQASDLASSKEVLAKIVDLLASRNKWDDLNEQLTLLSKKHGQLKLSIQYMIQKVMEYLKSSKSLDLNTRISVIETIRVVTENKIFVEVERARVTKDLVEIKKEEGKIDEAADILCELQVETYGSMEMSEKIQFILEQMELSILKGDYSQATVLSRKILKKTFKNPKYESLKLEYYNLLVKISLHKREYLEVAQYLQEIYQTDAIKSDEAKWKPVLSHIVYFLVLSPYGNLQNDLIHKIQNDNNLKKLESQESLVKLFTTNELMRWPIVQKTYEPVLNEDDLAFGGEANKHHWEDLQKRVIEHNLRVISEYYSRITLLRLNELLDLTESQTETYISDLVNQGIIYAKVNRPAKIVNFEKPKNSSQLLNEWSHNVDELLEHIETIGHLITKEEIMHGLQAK

[6] = target: T4, Rpn1 (S. cerevisiae, UniProt P38764 1-993); assay: electron microscopy, variance maps
T4 sequence: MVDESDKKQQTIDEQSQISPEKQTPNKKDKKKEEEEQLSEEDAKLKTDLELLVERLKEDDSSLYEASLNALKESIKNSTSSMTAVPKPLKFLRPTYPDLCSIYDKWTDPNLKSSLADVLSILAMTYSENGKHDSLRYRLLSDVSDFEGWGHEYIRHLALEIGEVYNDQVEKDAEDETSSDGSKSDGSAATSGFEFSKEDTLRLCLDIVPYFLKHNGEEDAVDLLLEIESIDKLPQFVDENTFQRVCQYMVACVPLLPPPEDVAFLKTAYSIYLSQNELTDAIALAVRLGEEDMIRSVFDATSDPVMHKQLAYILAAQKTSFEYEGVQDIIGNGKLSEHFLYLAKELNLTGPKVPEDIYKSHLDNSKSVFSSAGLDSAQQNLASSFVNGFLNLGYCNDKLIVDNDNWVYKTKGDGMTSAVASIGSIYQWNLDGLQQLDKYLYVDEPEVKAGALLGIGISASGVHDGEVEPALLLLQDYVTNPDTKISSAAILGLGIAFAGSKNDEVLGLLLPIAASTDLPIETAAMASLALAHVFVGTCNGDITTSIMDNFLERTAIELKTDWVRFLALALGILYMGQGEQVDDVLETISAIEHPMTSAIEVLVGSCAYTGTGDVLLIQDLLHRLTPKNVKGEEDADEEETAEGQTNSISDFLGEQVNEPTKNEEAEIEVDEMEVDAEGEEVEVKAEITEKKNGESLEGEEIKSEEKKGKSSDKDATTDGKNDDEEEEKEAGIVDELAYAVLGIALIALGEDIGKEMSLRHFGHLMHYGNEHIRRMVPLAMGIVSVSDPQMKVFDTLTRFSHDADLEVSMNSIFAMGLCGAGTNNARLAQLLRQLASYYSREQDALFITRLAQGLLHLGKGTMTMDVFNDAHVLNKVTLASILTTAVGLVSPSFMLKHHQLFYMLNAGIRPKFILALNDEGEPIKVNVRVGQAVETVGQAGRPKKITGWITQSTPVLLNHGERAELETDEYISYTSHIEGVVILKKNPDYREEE

Sequence of Rpt2 (P40327 whole entry): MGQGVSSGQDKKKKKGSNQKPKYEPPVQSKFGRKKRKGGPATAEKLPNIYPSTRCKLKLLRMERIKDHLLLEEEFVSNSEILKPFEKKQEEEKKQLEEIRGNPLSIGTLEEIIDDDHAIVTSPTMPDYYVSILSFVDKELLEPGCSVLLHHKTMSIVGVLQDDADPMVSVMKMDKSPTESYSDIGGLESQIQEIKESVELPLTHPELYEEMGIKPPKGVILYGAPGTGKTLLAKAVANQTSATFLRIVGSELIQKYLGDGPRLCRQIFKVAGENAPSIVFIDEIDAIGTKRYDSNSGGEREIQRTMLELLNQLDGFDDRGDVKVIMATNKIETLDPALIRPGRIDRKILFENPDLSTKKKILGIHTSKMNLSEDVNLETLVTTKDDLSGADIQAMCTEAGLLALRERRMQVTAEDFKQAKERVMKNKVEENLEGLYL

B1: binds [1].

B2: binds [2]; binds [3].

B3: binds [4].

B4: binds [4]; binds [5]; binds [3].

B5: binds [2]; binds [5].

B6: binds [6].

B7: binds [4].

B8: binds [1].
